In one test the target is HLA-B*08:03. Put plainly: IEDB peptide-MHC binding, purified MHC/direct/fluorescence; filed as Kd, often an IC50 or EC50 that approximates it; ≥ and ≤ were set here for values at or beyond the usual limits of such assays.
In test [1] the target is HLA-B*08:01. The description is as above.
A further test has as its target HLA-B*08:02. The description is as above.
A further test has as its target HLA-A*26:01. Put plainly: IEDB peptide-MHC binding, purified MHC/competitive/fluorescence; filed as Kd, often an IC50 or EC50 that approximates it; ≥ and ≤ were set here for values at or beyond the usual limits of such assays. The conditions noted are these: source organism: Orthohantavirus tulaense.
Test [2] addresses HLA-B*46:01. The test is described as above. Particulars: source organism: Orthohantavirus tulaense.
Test [3] deals with HLA-A*01:01. The test is described as above. Particulars: source organism: Orthohantavirus tulaense.
The target of test [4] is HLA-B*18:01. The test is described as above. The conditions noted are these: source organism: Orthohantavirus tulaense.
The target in test [5] is HLA-A*02:01. The description is as above. The conditions noted are these: source organism: Orthohantavirus tulaense.
Test [6] addresses HLA-B*15:17. Described as above. Particulars: source organism: Orthohantavirus tulaense.
For the next test, the target named is HLA-B*39:01. Described as above.
Another test has as its target HLA-B*27:03. The test is described as above. Particulars: source organism: Orthohantavirus tulaense.
Test [7] deals with HLA-B*57:01. The description is as above. The conditions noted are these: source organism: Orthohantavirus tulaense.
The next test addresses HLA-A*69:01. The test is described as above. Particulars: source organism: Orthohantavirus tulaense.
For another test, the target named is HLA-B*51:01. Described as above.
Another test addresses HLA-A*03:01. Put plainly: IEDB peptide-MHC binding, purified MHC/direct/fluorescence; filed as Kd, often an IC50 or EC50 that approximates it; ≥ and ≤ were set here for values at or beyond the usual limits of such assays.
For a further test, the target named is HLA-A*02:12. The description is as above. Particulars: source organism: Orthohantavirus tulaense.
Another test deals with HLA-A*24:03. Described as above. Particulars: source organism: Orthohantavirus tulaense.
For test [8], the target named is HLA-A*68:02. The test is described as above. Particulars: source organism: Orthohantavirus tulaense.
Another test concerns the target HLA-A*02:19. The test is described as above. The conditions noted are these: source organism: Orthohantavirus tulaense.
A further test has as its target HLA-A*02:11. Described as above. The conditions noted are these: source organism: Orthohantavirus tulaense.
In another test the target is HLA-A*23:01. Described as above. Particulars: source organism: Orthohantavirus tulaense.
The target in a further test is HLA-A*02:03. Described as above. Particulars: source organism: Orthohantavirus tulaense.
For another test, the target named is HLA-A*29:02. Described as above. Particulars: source organism: Orthohantavirus tulaense.
The target in another test is HLA-A*02:16. Described as above. Particulars: source organism: Orthohantavirus tulaense.
The target of test [9] is HLA-A*68:02. Put plainly: IEDB peptide-MHC binding, purified MHC/competitive/fluorescence; filed as Kd, often an IC50 or EC50 that approximates it; ≥ and ≤ were set here for values at or beyond the usual limits of such assays. Particulars: source organism: Salmonella enterica subsp. enterica serovar Typhi.
For test [10], the target named is HLA-B*46:01. Put plainly: IEDB peptide-MHC binding, purified MHC/direct/fluorescence; filed as Kd, often an IC50 or EC50 that approximates it; ≥ and ≤ were set here for values at or beyond the usual limits of such assays. The conditions noted are these: source organism: Salmonella enterica.
Test [11] deals with HLA-B*15:01. Described as above.
For test [12], the target named is HLA-A*01:01. The description is as above. Particulars: source organism: Salmonella enterica.
Test [13] has as its target HLA-B*18:01. Described as above. Particulars: source organism: Salmonella enterica.
For the next test, the target named is HLA-B*07:02. The description is as above. The conditions noted are these: source organism: Salmonella enterica.
In test [14] the target is HLA-A*02:01. Described as above. Particulars: source organism: Salmonella enterica.
The next test has as its target HLA-A*11:01. Described as above. The conditions noted are these: source organism: Salmonella enterica.
Test [15] has as its target HLA-B*15:17. Described as above. The conditions noted are these: source organism: Salmonella enterica.
In test [16] the target is HLA-B*57:01. Described as above. Particulars: source organism: Salmonella enterica.
For another test, the target named is HLA-B*58:01. The description is as above. Particulars: source organism: Salmonella enterica.
The target in another test is HLA-B*27:05. The description is as above. The conditions noted are these: source organism: Salmonella enterica.
In another test the target is HLA-B*48:01. The test is described as above. Particulars: source organism: Salmonella enterica.
The target of the next test is HLA-A*31:01. Described as above. The conditions noted are these: source organism: Salmonella enterica.
Test [17] has as its target HLA-B*40:01. The description is as above. The conditions noted are these: source organism: Salmonella enterica.
The target in test [18] is HLA-B*40:01. Put plainly: IEDB peptide-MHC binding, purified MHC/competitive/fluorescence; filed as Kd, often an IC50 or EC50 that approximates it; ≥ and ≤ were set here for values at or beyond the usual limits of such assays.
The next test addresses HLA-B*35:01. The test is described as above.
The target of test [19] is HLA-B*08:01. Described as above. Particulars: source organism: Shigella flexneri 5 str. 8401.
Test [20] has as its target HLA-B*15:01. The description is as above. The conditions noted are these: source organism: Escherichia coli.
Where [21] appears, read: source organism: Listeria monocytogenes serotype 4b str. H7858.
Where [22] appears, read: source organism: Orthohantavirus tulaense.
[23] abbreviates: source organism: Salmonella enterica.
The mark [24] stands for this setting: source organism: Salmonella enterica subsp. enterica serovar Typhimurium str. LT2.
Setting [25] is: source organism: Mycobacterium tuberculosis variant bovis.
Setting [26] is: source organism: Shigella flexneri 5 str. 8401.
[27] abbreviates: source organism: Escherichia coli.

On to QMKRRILSF, for which the values for the Kd in the test with HLA-B*08:03 (setting [21]), with HLA-B*08:01 [1] (setting [21]) and with HLA-B*08:02 (setting [21]) were 0.095 µM, 0.009 µM and 0.057 µM, respectively.

Regarding VVDALRNIY, the Kd with HLA-A*26:01 is no less than 20 µM; with HLA-B*46:01 [2] it was no less than 20 µM; with HLA-A*01:01 [3], 0.0063 µM; in the test with HLA-B*18:01 [4], no less than 20 µM; with HLA-A*02:01 [5], no less than 20 µM; in the test with HLA-B*15:17 [6] it was no less than 20 µM. Moreover, the Kd in the test with HLA-B*39:01 (setting [22]), with HLA-B*27:03, with HLA-B*57:01 [7], in the test with HLA-A*69:01, with HLA-B*51:01 (setting [22]) and with HLA-A*03:01 (setting [22]) was no less than 20 µM each time. The Kd with HLA-A*02:12, in the test with HLA-A*24:03, in the test with HLA-A*68:02 [8], with HLA-A*02:19, with HLA-A*02:11 and with HLA-A*23:01 was no less than 20 µM throughout. The Kd in the test with HLA-A*02:03, with HLA-A*29:02 and with HLA-A*02:16 was no less than 20 µM in each case.

Take NVHRSQFAQ: the Kd with HLA-A*68:02 [9], in the test with HLA-B*46:01 [10], in the test with HLA-A*03:01 (setting [23]), with HLA-B*15:01 [11] (setting [23]), with HLA-A*01:01 [12] and with HLA-B*08:03 (setting [24]) was no less than 20 µM throughout. Besides, the Kd in the test with HLA-B*08:01 [1] (setting [24]), with HLA-B*18:01 [13], with HLA-B*07:02, with HLA-A*02:01 [14], with HLA-A*11:01 and in the test with HLA-B*15:17 [15] was no less than 20 µM each time. In addition, the Kd with HLA-B*57:01 [16], with HLA-B*58:01, in the test with HLA-B*08:02 (setting [24]), with HLA-B*27:05, with HLA-B*48:01 and with HLA-A*31:01 was no less than 20 µM throughout. In addition, in the test with HLA-B*40:01 [17], the dissociation constant (Kd) was no less than 20 µM.

The sequence REWSGLNYL returned a Kd with HLA-B*40:01 [18] (source organism: Salmonella enterica subsp. enterica serovar Typhi) of 0.0033 µM.

Turning to ELNITSATY, the Kd with HLA-B*35:01 (setting [25]) came out at 0.0182 µM; in the test with HLA-B*15:01 [11] (setting [25]), 0.459 µM.

Turning to EEISSIISL, in the test with HLA-B*40:01 [18] (source organism: Bacillus anthracis str. A2012), the Kd came to 0.0023 µM.

For the sequence LPRRLQLLF, the figures for the Kd with HLA-B*35:01 (setting [26]), in the test with HLA-B*08:01 [19] and with HLA-B*51:01 (setting [26]) were 0.0029 µM, 4 µM and 2.64 µM, respectively.

With QATAQAAAY, the Kd was 0.0145 µM with HLA-B*35:01 (source organism: Mycobacterium tuberculosis C) and 6.05 µM in the test with HLA-B*15:01 [11] (setting [25]).

For LQEEMAETL, the Kd with HLA-B*15:01 [20] is no less than 20 µM; with HLA-B*39:01 (setting [27]), 0.108 µM; with HLA-B*40:01 [18] (setting [27]) it was 0.866 µM.

A word on the Kd: it is the free concentration of one partner at which half of the binding sites on the other are occupied at equilibrium, for simple one-to-one binding. Lower therefore signals a tighter complex.

(Values after the Immune Epitope Database (IEDB).)
